Results: patent publication US20140335539A1

How the values were obtained:
p62(PB1)-p53 = assay: cell-based or functional assay
p62(PB1)-FKBP12 = assay: cell-based or functional assay

Row | IC50 of Nutlin-3, total luminance of fluorescent foci per cell (stable CHO-K1 line) (p62(PB1)-p53) [µM] | IC50 of FK506 in the presence of 20 nM rapamycin, total fluorescence intensity of fluorescent foci per cell (stable HeLaS3 line) (p62(PB1)-FKBP12) [µM] | Substance
1 | 8.9 | – | AG-MDM2
2 | – | 0.68 | mTOR(FRB)-AG
